In article doi:10.1101/2025.04.02.646914:

Key:
Test in all cases: FP
MS2 coat protein N55D = MS2 coat protein N55D (bacteriophage MS2, UniProt P03612 2-130, N56D)
MS2 coat protein WT = MS2 coat protein WT (bacteriophage MS2, UniProt P03612 2-130)
MS2 coat protein W32A = MS2 coat protein W32A (bacteriophage MS2, UniProt P03612 2-130, W33A)

CCUACAUGAGGAUUACCCAUGUU (structured_RNA) [5' fluoro MS2 SL]
binding result (MS2 coat protein N55D): no binding | binding result (MS2 coat protein WT): binds | binding result (MS2 coat protein W32A): no binding
